Measurements: US20230272117A1, “ANTI ABCC1 ANTIBODIES AND USES THEREOF” (Kenjockety Biotechnology, Inc., priority 2020, published 2023)
Residue numbers refer to the chain shown, from its start.

B1: C1.831: anti-ABCC1 antibody, VH SEQ ID NO: 16, VL SEQ ID NO: 90 (antibody, listed as Rattus norvegicus, V domains shown)
VH: EVQLTESGPGLVQPSQTLSLTCTVSGFSLTSNGVSWVRQPPGKGLEWIAAISSGGNIYYNSVLKSRLSISRDTSKSQVFLKMSSVQTEDTAIYFCTRERGWNYPFITNGYYFDYWGQGVMVTVSS
VL: EIMLTQSPSLLSASVGDRVTLSCKAGQNINNYLAWYQQKLGEAPKLLIYNANSLQTGIPSRFSGSGSGTDYTLTISSLQPEDVATYFCQQYNSWYTFGAGTKLEIK
B2: C1.787a: anti-ABCC1 antibody, VH SEQ ID NO: 11, VL SEQ ID NO: 86 (antibody, listed as Rattus norvegicus, V domains shown)
VH: EVQLTESGPGLVQPSQTLSLTCTVSGFSLTSNGVSWVRQPPGKGLEWIAAISSGGSTYYNSAFKSRLSISRHTSKSQVLLNMNSLQTEDTAMYFCARHRGYYWSNWGYFDYWGQGVMVTVSS
VL: NIQLTQSPSLLSASVGDRVTLSCKGSQNINNYLAWYQQKLGEAPKLLIYKTNSLQTGIPSRFSGSGSGTDYTLTLSSLHSEDLATYYCCQYNDGYTFGAGTKLELK
B3: C1.831.hu11: humanized anti-ABCC1 antibody, VH SEQ ID NO: 29, VL SEQ ID NO: 108 (antibody, V domains shown)
VH: EVQLQESGPGLVKPSETLSLTCTVSGFSLTSNGVSWVRQPPGKGLEWIAAISSGGNIYYNSVLKSRLTISRDTSKNQVSLKLSSVTAADTAVYYCTRERGWNYPFITNGYYFDYWGQGTLVTVSS
VL: B1 VL with E1D, M3Q, L10S, L21I, S22T, L40P, E42K, V83F, F87Y, A99Q
modifications: humanized sequence
B4: C1.861.hu11: humanized anti-ABCC1 antibody, VH SEQ ID NO: 33, VL SEQ ID NO: 110 (antibody, V domains shown)
VH: EVQLQESGPGLVKPSETLSLTCTVSGFSLTSNGVTWVRQPPGKGLEWIAAISSGGNIYYNSAVKSRLTISRDTSKNQVSLKLSSVTAADTAVYYCTRARGTTTAYVMDAWGQGTTVTVSS
VL: DVQLTQSPSSLSASVGDRVTITCKSSQSLLYSGNQKNYLAWYQQKPGKSPKLLIYWASTRQSGVPSRFSGSGSGTDFTLTISSLQPEDVATYYCQQYYDVLMNMFGGGTKLEIK
modifications: humanized sequence
B5: C1.861.hu21: humanized anti-ABCC1 antibody, VH SEQ ID NO: 34, VL SEQ ID NO: 110 (antibody, V domains shown)
VH: EVQLVESGGGLIQPGGSLRLSCAVSGFSLTSNGVTWVRQPPGKGLEWIAAISSGGNIYYNSAVKSRLTISRDTSKNTVYLQMNSLRAEDTAVYFCTRARGTTTAYVMDAWGQGTTVTVSS
VL: B4 VL
modifications: humanized sequence
B6: C1.844.hu21: humanized anti-ABCC1 antibody, VH SEQ ID NO: 32, VL SEQ ID NO: 109 (antibody, V domains shown)
VH: B5 VH with T35I, A62G, V63L, F94Y, T115L
VL: DIVMTQSPDSLAVSLGERATINCKSSQSLLYSVNQKNYLAWYQQKPGQSPKLLIYWASTRQSGVPDRFSGSGSGTDFTLTISSLQAEDVAVYYCQQYYDTLMKMFGAGTKLELK
modifications: humanized sequence
B7: C1.851.hu12: humanized anti-ABCC1 antibody, VH SEQ ID NO: 27, VL SEQ ID NO: 105 (antibody, V domains shown)
VH: EVQLQESGPGLVKPSETLSLTCTVSGFSLTNNGVSWIRQPPGKGLEWIAAISSGGNIYYNSAFKSRLTISRDTSKNQVSLKLSSVTAADTAVYYCARHRGYYGYNWGYFDYWGQGTLVTVSS
VL: DIQLTQSPSSLSASVGDRVTITCKGSQNINNYLAWYQQKPGKAPKLLIYKTNSLQTGIPSRFSGSGSGTDYTLTISSLQPEDFATYYCYQYNNGYTFGQGTKLEIK
modifications: humanized sequence
B8: C1.851.hu14: humanized anti-ABCC1 antibody, VH SEQ ID NO: 27, VL printed as SEQ ID NO: 76, LCDR3 SEQ ID NO: 148 (antibody, V domains shown)
VH: B7 VH
VL: DVVMTQTPLSLPVSLGDQASISCRSSQSIVHSNGNTYLEWYLQKPGQSPKLLIYKVSNRFSGVPDRFSGSGTGTDFTLKISRVEAEDLGVYYCFQGSHVPRTFGGGTKLEIK
modifications: humanized sequence; Mus musculus or humanized sequence
B9: C1.851.hu15: humanized anti-ABCC1 antibody, VH SEQ ID NO: 27, VL printed as SEQ ID NO: 77, LCDR3 SEQ ID NO: 149 (antibody, V domains shown)
VH: B7 VH
VL: DVVMTQAPSSLSASLGERISLTCRASQDIYGSLNWFQQKPDGTIKLLIYGTSSLDSGVPKRFSGSRSGSDYSLTISSLESEDFADYYCLQYASSPYTFGGGTKLEIK
modifications: humanized sequence; Mus musculus or humanized sequence

These molecules were tested on CT26 tumor (assay: CT26 syngeneic mouse tumor model). Settings: CT26, antibody 3 mg/kg + Doxorubicin 2 mg/kg.
Format: in vivo
Method: Syngeneic models are allografts immortalized from mouse cancer cell lines, which are then grafted back into the same inbred immunocompetent mouse strain. CT26 is an N-nitroso-N-methylurethane-(NNMU) induced undifferentiated fibroblastic colon carcinoma cell line established from BALB/c mice with aggressive colon carcinoma. C26 cells were purchased from ATCC® (CRL-2638™) and maintained in RPMI-1640 medium supplemented with 10% FBS and 1% penicillin, 1% streptomycin at 37° C., 5% CO2. Cell lines used were authentic and confirmed to be mycoplasma negative. The cells are adherent with a fibroblast morphology and will form tumors and metastases post implantation into syngeneic BALB/c mice or immunocompromised mice.
1×10^6 cells diluted inPBS:Matrigel (1:1) were subcutaneously implanted using a 27G insulin syringe into anesthetized […] old female Balb/c mice under aseptic conditions. All animal maintenance, handling, surveillance, and animal procedures were performed in accordance with an approval from the APLAC protocol.
Once tumors reached 100-150 mm^3, mice were randomized into 6 groups of five mice each: • 1. Control isotype 3 mg/kg, • 2. Control isotype 3 mg/kg+Doxorubicin 2 mg/kg • 3. KNJY C1-831 3 mg/kg • 4. KNJY C1-831 3 mg/kg+Doxorubicin • 5. KNJY C1-787A 3 mg/kg • 6. KNJY C1-787A 3 mg/kg+Doxorubicin 2 mg/kg.
Doxorubicin is soluble in water. All test articles were dosed intraperitoneally twice a week for two consecutive weeks. Antibodies were dosed 4 hr prior to Doxorubicin.
Tumors were measured three times a week using a calibrated Vernier Caliper and tumor volume calculated as per the formula ½*L*S*S, where L is the long axis and S is the short axis of the tumor. Body weights were recorded before treatment started and were continuously monitored throughout the study. Animals were euthanized when turning moribund according to the above-mentioned predefined criteria rapid weight loss, loss of ability to ambulate, labored respiration, or inability to drink or feed to avoid animal suffering.
With B1 the “effect of doxorubicin on the inhibition of tumor growth by the antibody” value was “enhanced by doxorubicin”.
For B2, the “effect of doxorubicin on the inhibition of tumor growth by the antibody” value was “enhanced by doxorubicin”.

Same assay, conditions: CT26 in BALB/c mice, antibody 3 mg/kg intraperitoneally twice a week for two weeks
B1 was tested, and the “tumor growth in vivo” value was “inhibit tumor growth”.
For B2, the “tumor growth in vivo” value was “inhibit tumor growth”.

Each molecule was assayed against T1, human ABCC1 (Homo sapiens, UniProt P33527) (assay: Titration binding assay of humanized antibodies (FIGS. 8A-8C), human ABCC1). Settings: cell line not stated.
T1 sequence (P33527 whole entry): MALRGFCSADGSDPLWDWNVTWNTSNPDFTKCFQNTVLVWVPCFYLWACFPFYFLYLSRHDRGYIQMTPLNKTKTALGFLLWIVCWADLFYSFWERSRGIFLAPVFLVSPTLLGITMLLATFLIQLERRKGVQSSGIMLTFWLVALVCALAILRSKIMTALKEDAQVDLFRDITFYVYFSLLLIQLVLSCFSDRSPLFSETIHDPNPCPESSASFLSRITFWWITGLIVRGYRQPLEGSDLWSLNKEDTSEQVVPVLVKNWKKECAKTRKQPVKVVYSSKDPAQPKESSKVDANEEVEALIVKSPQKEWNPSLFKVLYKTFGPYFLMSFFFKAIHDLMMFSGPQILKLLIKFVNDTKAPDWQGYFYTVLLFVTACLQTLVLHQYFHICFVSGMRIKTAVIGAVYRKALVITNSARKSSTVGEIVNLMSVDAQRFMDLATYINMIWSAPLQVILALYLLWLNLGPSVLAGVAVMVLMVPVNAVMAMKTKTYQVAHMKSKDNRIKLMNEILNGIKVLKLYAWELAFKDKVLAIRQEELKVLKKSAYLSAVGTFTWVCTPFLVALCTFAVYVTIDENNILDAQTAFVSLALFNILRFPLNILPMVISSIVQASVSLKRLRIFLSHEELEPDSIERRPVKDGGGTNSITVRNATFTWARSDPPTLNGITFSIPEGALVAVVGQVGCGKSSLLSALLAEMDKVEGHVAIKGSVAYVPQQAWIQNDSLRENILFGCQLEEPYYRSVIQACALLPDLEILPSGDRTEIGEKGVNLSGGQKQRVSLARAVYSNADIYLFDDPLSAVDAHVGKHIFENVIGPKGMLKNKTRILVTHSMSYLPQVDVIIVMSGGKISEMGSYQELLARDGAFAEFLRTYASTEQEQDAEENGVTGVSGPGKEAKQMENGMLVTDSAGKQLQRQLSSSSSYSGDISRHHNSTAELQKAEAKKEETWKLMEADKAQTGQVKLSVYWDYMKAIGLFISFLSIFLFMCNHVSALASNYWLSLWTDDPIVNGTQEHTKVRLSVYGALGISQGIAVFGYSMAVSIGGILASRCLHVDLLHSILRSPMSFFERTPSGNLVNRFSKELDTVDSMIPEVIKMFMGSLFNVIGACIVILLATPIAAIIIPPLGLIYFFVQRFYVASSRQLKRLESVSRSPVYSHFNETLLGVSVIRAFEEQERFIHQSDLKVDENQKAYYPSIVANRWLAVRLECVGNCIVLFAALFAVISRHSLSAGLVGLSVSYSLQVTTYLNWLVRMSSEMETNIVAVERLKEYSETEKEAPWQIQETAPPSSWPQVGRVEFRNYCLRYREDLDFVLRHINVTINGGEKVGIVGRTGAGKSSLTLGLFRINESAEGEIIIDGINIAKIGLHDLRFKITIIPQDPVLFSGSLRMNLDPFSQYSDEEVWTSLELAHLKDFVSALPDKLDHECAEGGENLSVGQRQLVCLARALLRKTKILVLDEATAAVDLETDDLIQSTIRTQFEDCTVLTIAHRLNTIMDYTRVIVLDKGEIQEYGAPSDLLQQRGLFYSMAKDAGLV
Set-up: expressed in transfected cells; host or cells: 293T (HEK 293T) cells
Method: (§1) Binding titration of recombinant antibodies to KPC1 transfectants was performed by serial dilution of antibodies from about 666 nM, Diluted antibody in flow cytometry buffer was incubated with cells on ice for 30 min. After 2 washes with flow cytometry buffer, bound antibody was detected with PE-labeled F(ab′)2 fragment goat anti-human IgG (Jackson ImmunoResearch) diluted 1:200 in flow cytometry buffer and incubated with cells for 20 min on ice. After 2 washes with flow cytometry buffer fluorescence was measured on an Attune NxT flow cytometer. Data were analyzed with GraphPad Prism 8.0 software to determine EC50's.
For B3, the “binding to human ABCC1 in the titration binding assay” value (from here on “binding to human ABCC1”) was “bind both human and cynomolgus ABCC1”.
With B4 the “binding to human ABCC1” value was “bind both human and cynomolgus ABCC1”.
B5 was tested, and the “binding to human ABCC1” value was “bind both human and cynomolgus ABCC1”.
For B6, the “binding to human ABCC1” value was “bind both human and cynomolgus ABCC1”.

These molecules were tested against T2, cynomolgus ABCC1 (Macaca fascicularis, UniProt Q864R9) (assay: Titration binding to cynomolgus ABCC1-overexpressing rat C6 glioma cells (FACS)). Settings: not given.
T2 sequence (Q864R9 whole entry): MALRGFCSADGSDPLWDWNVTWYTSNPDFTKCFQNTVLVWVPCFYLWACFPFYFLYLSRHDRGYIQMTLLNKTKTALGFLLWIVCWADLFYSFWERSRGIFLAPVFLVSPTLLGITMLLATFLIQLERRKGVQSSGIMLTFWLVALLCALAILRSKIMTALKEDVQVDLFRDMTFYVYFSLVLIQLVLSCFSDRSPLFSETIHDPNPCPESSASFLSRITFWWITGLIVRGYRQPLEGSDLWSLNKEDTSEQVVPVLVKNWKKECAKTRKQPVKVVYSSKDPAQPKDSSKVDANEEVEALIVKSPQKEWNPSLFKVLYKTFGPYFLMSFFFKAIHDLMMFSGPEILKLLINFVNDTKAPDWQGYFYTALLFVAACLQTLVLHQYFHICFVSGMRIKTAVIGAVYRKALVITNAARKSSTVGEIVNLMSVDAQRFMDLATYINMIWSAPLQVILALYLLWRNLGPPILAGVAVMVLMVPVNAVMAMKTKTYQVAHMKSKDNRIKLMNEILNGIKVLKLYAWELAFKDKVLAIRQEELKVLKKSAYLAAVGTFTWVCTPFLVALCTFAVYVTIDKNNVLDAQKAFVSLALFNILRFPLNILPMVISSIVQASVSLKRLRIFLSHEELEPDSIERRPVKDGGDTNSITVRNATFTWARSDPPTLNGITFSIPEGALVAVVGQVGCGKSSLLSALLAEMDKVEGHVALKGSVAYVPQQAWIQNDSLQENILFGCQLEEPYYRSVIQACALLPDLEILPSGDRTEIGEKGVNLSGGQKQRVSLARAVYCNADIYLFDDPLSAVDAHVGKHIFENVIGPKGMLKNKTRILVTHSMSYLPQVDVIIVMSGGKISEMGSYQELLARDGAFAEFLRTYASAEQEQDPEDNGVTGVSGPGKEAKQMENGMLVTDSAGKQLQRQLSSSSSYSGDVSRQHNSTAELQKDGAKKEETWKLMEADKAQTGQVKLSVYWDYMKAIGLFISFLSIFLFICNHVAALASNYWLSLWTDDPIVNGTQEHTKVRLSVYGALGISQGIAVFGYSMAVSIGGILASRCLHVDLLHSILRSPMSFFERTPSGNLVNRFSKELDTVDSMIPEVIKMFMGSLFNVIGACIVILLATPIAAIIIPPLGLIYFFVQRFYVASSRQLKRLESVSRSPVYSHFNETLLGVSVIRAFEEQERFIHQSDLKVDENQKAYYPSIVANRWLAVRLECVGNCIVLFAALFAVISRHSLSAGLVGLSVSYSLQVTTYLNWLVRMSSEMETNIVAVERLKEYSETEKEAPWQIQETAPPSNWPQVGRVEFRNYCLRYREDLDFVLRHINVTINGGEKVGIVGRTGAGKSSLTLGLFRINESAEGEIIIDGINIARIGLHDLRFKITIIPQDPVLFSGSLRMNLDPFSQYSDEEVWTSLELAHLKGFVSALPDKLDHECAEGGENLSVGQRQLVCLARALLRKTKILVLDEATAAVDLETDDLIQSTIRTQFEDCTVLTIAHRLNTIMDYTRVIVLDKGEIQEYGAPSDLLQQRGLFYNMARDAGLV
Set-up: expressed in transfected cells
B7 was tested, and the “binding to C6 cells overexpressing cynomolgus ABCC1” value was “retain the ability to bind both human and cynomolgus ABCC1”.
With B8 the “binding to C6 cells overexpressing cynomolgus ABCC1” value was “retain the ability to bind both human and cynomolgus ABCC1”.
For B9, the “binding to C6 cells overexpressing cynomolgus ABCC1” value was “retain the ability to bind both human and cynomolgus ABCC1”.

What follows are molecules tested against T1, human ABCC1 (assay: ABCC1 efflux assay in HEK293T cells expressing human ABCC1). Settings: HEK293T cells expressing human ABCC1, Calcein AM fluorescence.
Format: cell-based
Set-up: expressed in transfected cells; host or cells: 293T (HEK 293T) cells
Method: HEK 293T cells expressing human ABCC1 were washed several times and aliquoted into 96-well plates as 50 μl aliquots/well at a cell density of 1×10^6 cells per ml in phenol red-free DMEM. Cells were mixed with 50 μl antibodies and incubated for 1.5 h at 37° C. The cells were then washed twice and finally resuspended in […] PBS. Calcein AM fluorescence was measured by flow cytometry.
For B3, the “inhibition of the efflux function of the ABCC1 transporter” value (“inhibition … of the ABCC1 transporter” for short) was “significantly inhibit the efflux function”.
In the case of B4, the “inhibition … of the ABCC1 transporter” value is reported as “significantly inhibit the efflux function”.
In the case of B5, the “inhibition … of the ABCC1 transporter” value is reported as “significantly inhibit the efflux function”.
In the case of B6, the “inhibition … of the ABCC1 transporter” value is reported as “significantly inhibit the efflux function”.

Each molecule was assayed against T1, human ABCC1 (assay: Titration binding to human ABCC1-overexpressing rat C6 glioma cells (FACS)). Settings: not given.
Set-up: expressed in transfected cells
In the case of B7, the “binding to C6 cells overexpressing human ABCC1” value is reported as “retain the ability to bind both human and cynomolgus ABCC1”.
B8 was tested, and the “binding to C6 cells overexpressing human ABCC1” value was “retain the ability to bind both human and cynomolgus ABCC1”.
In the case of B9, the “binding to C6 cells overexpressing human ABCC1” value is reported as “retain the ability to bind both human and cynomolgus ABCC1”.

The molecules below were run against T2, cynomolgus ABCC1 (assay: Titration binding assay of humanized antibodies (FIGS. 8A-8C), cynomolgus ABCC1). Settings: cell line not stated.
Set-up: expressed in transfected cells; host or cells: 293T cells
Method: as §1
With B3 the “binding to cynomolgus ABCC1 in the titration binding assay” value (from here on “binding to cynomolgus ABCC1”) was “bind both human and cynomolgus ABCC1”.
With B4 the “binding to cynomolgus ABCC1” value was “bind both human and cynomolgus ABCC1”.
With B5 the “binding to cynomolgus ABCC1” value was “bind both human and cynomolgus ABCC1”.
In the case of B6, the “binding to cynomolgus ABCC1” value is reported as “bind both human and cynomolgus ABCC1”.
